Laboratory results taken from PMC12322040 (Nature Communications, 2025).
Blank lines part the entries; values can stand above or below the binder they belong to.

Experiments:
[1] = target: T1, GST-GCK WT (human, UniProt P35557 1-465); assay: pull-down
T1 sequence (looked up): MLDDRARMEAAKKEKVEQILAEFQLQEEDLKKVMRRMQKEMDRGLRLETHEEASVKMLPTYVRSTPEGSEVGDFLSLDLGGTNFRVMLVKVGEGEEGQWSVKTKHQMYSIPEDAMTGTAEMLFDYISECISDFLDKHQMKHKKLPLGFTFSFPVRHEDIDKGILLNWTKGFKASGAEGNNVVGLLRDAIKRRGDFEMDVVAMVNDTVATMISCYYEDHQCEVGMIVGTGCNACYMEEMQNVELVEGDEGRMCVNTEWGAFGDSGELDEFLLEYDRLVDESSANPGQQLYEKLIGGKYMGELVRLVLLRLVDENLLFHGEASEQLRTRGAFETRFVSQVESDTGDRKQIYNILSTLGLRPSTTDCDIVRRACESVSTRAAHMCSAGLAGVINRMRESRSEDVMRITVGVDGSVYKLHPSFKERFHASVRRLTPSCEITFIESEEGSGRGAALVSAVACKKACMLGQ

[2] = target: T2, His-GCK WT (human, UniProt P35557 1-465); assay: pull-down
T2 sequence (looked up): T1 sequence (looked up)

binding result [1]: binds
B1: His-CK2α (enzyme, human, UniProt P68400 1-391, looked up)
chain: MSGPVPSRARVYTDVNTHRPREYWDYESHVVEWGNQDDYQLVRKLGRGKYSEVFEAINITNNEKVVVKILKPVKKKKIKREIKILENLRGGPNIITLADIVKDPVSRTPALVFEHVNNTDFKQLYQTLTDYDIRFYMYEILKALDYCHSMGIMHRDVKPHNVMIDHEHRKLRLIDWGLAEFYHPGQEYNVRVASRYFKGPELLVDYQMYDYSLDMWSLGCMLASMIFRKEPFFHGHDNYDQLVRIAKVLGTEDLYDYIDKYNIELDPRFNDILGRHSRKRWERFVHSENQHLVSPEALDFLDKLLRYDHQSRLTAREAMEHPYFYTVVKDQARMGSSSMPGGSTPVSSANMMSGISSVPTPSPLGPLAGSPVIAAANPLGMPVPAAAGAQQ

binding result [2]: binds
B2: GST-CK2α WT phosphorylated by active His-ERK2 (enzyme, human, UniProt P68400 1-391, looked up)
chain: B1 chain
modifications: phosphothreonine at 360, phosphoserine at 362 (ERK-mediated)
